From IntAct's records for PubMed 28490631

B1: Triggering receptor expressed on myeloid cells 2 (Homo sapiens), Q9NZC2 (parent)
chain: MEPLRLLILLFVTELSGAHNTTVFQGVAGQSLQVSCPYDSMKHWGRRKAWCRQLGEKGPCQRVVSTHNLWLLSFLRRWNGSTAITDDTLGGTLTITLRNLQPHDAGLYQCQSLHGSEADTLRKVLVEVLADPLDHRDAGDLWFPGESESFEDAHVEHSISRSLLEGEIPFPPTSILLLLACIFLIKILAASALWAAAWHGQKPGTHPPSELDCGHDPGYQLQTLPGLRDT

Variants of: B1
Conditions: with tyobp_human TYROBP

Row | Variant | effect of a mutation on the interaction
1 | MEPLRLLILLFVTELSGAHNTTVFQGVAGQSLQVSCPYDSMKHWGRRKAWCRQLGEKGPCQRVVSTHNLWLLSFLRRWNGSTAITDDTLGGTLTITLRNLQPHDAGLYQCQSLHGCEADTLRKVLVEVLADPLDHRDAGDLWFPGESESFEDAHVEHSISRSLLEGEIPFPPTSILLLLACIFLIKILAASALWAAAWHGQKPGTHPPSELDCGHDPGYQLQTLPGLRDT [S116C] | with no effect
2 | MEPLRLLILLFVTELSGAHNTTVFQGVAGQSLQVSCPYDSMKHWGRRKAWCRQLGEKGPCQRVVSMHNLWLLSFLRRWNGSTAITDDTLGGTLTITLRNLQPHDAGLYQCQSLHGSEADTLRKVLVEVLADPLDHRDAGDLWFPGESESFEDAHVEHSISRSLLEGEIPFPPTSILLLLACIFLIKILAASALWAAAWHGQKPGTHPPSELDCGHDPGYQLQTLPGLRDT [T66M] | with no effect

Variants of: B1
Conditions: with tyobp_human TYROBP
Remark: another data set of the same source

Row | Variant | effect of a mutation on the interaction
3 | MEPLRLLILLFVTELSGAHNTTVFQGVAGQSLQVSCPYDSMKHWGRRKAWCRQLGEKGPCQRVVSMHNLWLLSFLRRWNGSTAITDDTLGGTLTITLRNLQPHDAGLYQCQSLHGSEADTLRKVLVEVLADPLDHRDAGDLWFPGESESFEDAHVEHSISRSLLEGEIPFPPTSILLLLACIFLIKILAASALWAAAWHGQKPGTHPPSELDCGHDPGYQLQTLPGLRDT [T66M] | increasing interaction strength
4 | MEPLRLLILLFVTELSGAHNTTVFQGVAGQSLQVSCPYDSMKHWGRHKAWCRQLGEKGPCQRVVSTHNLWLLSFLRRWNGSTAITDDTLGGTLTITLRNLQPHDAGLYQCQSLHGSEADTLRKVLVEVLADPLDHRDAGDLWFPGESESFEDAHVEHSISRSLLEGEIPFPPTSILLLLACIFLIKILAASALWAAAWHGQKPGTHPPSELDCGHDPGYQLQTLPGLRDT [R47H] | with no effect
